The text below walks through data of PMC6691507 (Biochemistry, 2019).

In this assay the target is PAD2 D177A mutant, purified recombinant (human (from the printed UniProt entry …, UniProt Q9Y2J8 1-665, D177A)). Briefly: co-IP.
Sequence of PAD2 D177A mutant, purified recombinant (human (Q9Y2J8 whole entry D177A): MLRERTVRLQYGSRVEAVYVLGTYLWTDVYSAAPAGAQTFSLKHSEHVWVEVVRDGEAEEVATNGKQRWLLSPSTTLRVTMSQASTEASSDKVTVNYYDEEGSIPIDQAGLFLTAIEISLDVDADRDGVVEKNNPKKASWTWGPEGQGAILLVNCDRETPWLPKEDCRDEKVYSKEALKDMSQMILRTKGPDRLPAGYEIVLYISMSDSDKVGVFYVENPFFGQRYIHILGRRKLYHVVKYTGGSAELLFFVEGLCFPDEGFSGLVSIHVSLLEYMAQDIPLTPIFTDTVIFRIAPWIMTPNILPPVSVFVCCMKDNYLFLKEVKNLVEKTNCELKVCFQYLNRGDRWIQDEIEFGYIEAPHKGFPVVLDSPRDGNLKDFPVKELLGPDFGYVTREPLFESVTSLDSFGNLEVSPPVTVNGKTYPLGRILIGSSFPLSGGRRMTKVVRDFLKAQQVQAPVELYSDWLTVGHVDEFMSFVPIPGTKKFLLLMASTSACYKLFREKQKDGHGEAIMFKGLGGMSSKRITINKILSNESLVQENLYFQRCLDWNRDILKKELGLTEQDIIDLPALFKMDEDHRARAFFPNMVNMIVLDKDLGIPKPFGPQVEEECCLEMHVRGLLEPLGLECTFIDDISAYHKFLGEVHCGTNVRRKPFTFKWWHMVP

B1: Annexin A5 (ANXA5), purified recombinant (natural protein, UniProt P08758 1-320, looked up)
chain: MAQVLRGTVTDFPGFDERADAETLRKAMKGLGTDEESILTLLTSRSNAQRQEISAAFKTLFGRDLLDDLKSELTGKFEKLIVALMKPSRLYDAYELKHALKGAGTNEKVLTEIIASRTPEELRAIKQVYEEEYGSSLEDDVVGDTSGYYQRMLVVLLQANRDPDAGIDEAQVEQDAQALFQAGELKWGTDEEKFITIFGTRSVSHLRKVFDKYMTISGFQIEETIDRETSGNLEQLLLAVVKSIRSIPAYLAETLYYAMKGAGTDDHTLIRVMVSRSEIDLFNIRKEFRKNFATSLYSMIKGDTSGDYKKALLLLCGEDD
With B1, the binding result is listed as “binds”.
